From patent US7183376

Target: human CD28 receptor on T cells (human, UniProt P10747 19-220)
Assay: cell-based or functional assay

B1: Round 2 CD28BP-15 (ligand)
chain: ITPKSVTKRVKETVMLSCDYNTSTEELTSLRIYWQKDSKMVLAILPGKVQVWPEYKNRTITDMNDNPRIVILALRPSDSGTYTCVIQKPVLKGAYKLEHLASVRLMIRADFPVPTINDLGNPSPNIRRLICSTSGGFPRPHLYWLENGEELNATNTTVSQDPGTELYMISSELDFNVTNNHSIVCLIKYGELSVSQIFPWSKPKQEPPIDQLPFWVIIPVSGALVLTAVVLYCLACRHVARWKRTRRNEETVGTERLSPIYLGSAQSSG
  T cell proliferation (3H-thymidine), transfected 293 HEK cells: ~3 fold
